What follows are sequences tested on Escherichia coli TOP10 (assay: shrunken log2 fold change of peptide-encoding DNA abundance (4.5 h post-induction vs induction); higher = less antimicrobial activity (less host growth inhibition)). Settings: time post-induction: 4.5 h; library: site-saturation at positions 5, 18, 19, 20.
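Note: peptides expressed intracellularly from a pBAD plasmid library in pooled LB shake-flask culture, induced with 0.3% L-arabinose, DNA abundance read by NGS, three biological replicates, DESeq2 with apeglm shrinkage.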

| Sequence | shrunken log2 fold change |
| --- | --- |
| RRIRQRPPRLPRPRPRPGISPRP | 0.0461 |
| RRIRARPPRLPRPRPRPEDPPRP | 0.823 |
| RRIRNRPPRLPRPRPRPVPSPRP | 0.155 |
| RRIRQRPPRLPRPRPRPFNNPRP | -0.476 |
| RRIRWRPPRLPRPRPRPGSRPRP | 0.244 |
| RRIRFRPPRLPRPRPRPSRTPRP | 0.0872 |
| RRIRPRPPRLPRPRPRPHFHPRP | -0.191 |
| RRIRVRPPRLPRPRPRPTLAPRP | 0.797 |
| RRIRTRPPRLPRPRPRPNRAPRP | -0.244 |
| RRIRFRPPRLPRPRPRPGMNPRP | -0.147 |
| RRIRLRPPRLPRPRPRPPENPRP | 0.588 |
| RRIRKRPPRLPRPRPRPKYEPRP | 0.057 |
| RRIRMRPPRLPRPRPRPGVKPRP | 0.172 |
| RRIRQRPPRLPRPRPRPLPFPRP | -0.782 |
| RRIRVRPPRLPRPRPRPWGCPRP | 0.076 |
| RRIRHRPPRLPRPRPRPIMFPRP | -0.439 |
| RRIRLRPPRLPRPRPRPKDDPRP | -0.0117 |
| RRIRTRPPRLPRPRPRPRGNPRP | 0.0399 |
| RRIRWRPPRLPRPRPRPHMYPRP | -0.443 |
| RRIRSRPPRLPRPRPRPILAPRP | -0.162 |
| RRIRRRPPRLPRPRPRPVYLPRP | -0.173 |
| RRIRIRPPRLPRPRPRPVTMPRP | -1.03 |

| Sequence | shrunken log2 fold change |
| --- | --- |
| RRIRGRPPRLPRPRPRPTENPRP | 0.682 |
| RRIRRRPPRLPRPRPRPDWPPRP | 0.556 |
| RRIRKRPPRLPRPRPRPPYLPRP | 0.0134 |
| RRIRCRPPRLPRPRPRPTEGPRP | 0.284 |
| RRIRIRPPRLPRPRPRPSKYPRP | -1.12 |
| RRIRKRPPRLPRPRPRPHHQPRP | 0.00598 |
| RRIRIRPPRLPRPRPRPEWKPRP | 0.0442 |
| RRIRWRPPRLPRPRPRPGRMPRP | 0.000663 |
| RRIRARPPRLPRPRPRPHRDPRP | 0.0774 |
| RRIRKRPPRLPRPRPRPGSDPRP | 0.737 |
| RRIRARPPRLPRPRPRPAKAPRP | 0.332 |
| RRIRGRPPRLPRPRPRPEYGPRP | -0.0112 |
| RRIRRRPPRLPRPRPRPPEMPRP | 0.66 |
| RRIRSRPPRLPRPRPRPYWAPRP | -0.177 |
| RRIRIRPPRLPRPRPRPSWDPRP | -0.462 |
| RRIRCRPPRLPRPRPRPFGYPRP | -0.174 |
| RRIRLRPPRLPRPRPRPQIEPRP | -0.155 |
| RRIRCRPPRLPRPRPRPYYQPRP | -1.14 |
| RRIRPRPPRLPRPRPRPRDEPRP | 0.0975 |
| RRIRWRPPRLPRPRPRPMGKPRP | 0.561 |
| RRIRLRPPRLPRPRPRPDWPPRP | -0.0804 |
| RRIRLRPPRLPRPRPRPIDMPRP | -0.184 |

| Sequence | shrunken log2 fold change |
| --- | --- |
| RRIRVRPPRLPRPRPRPNENPRP | -0.349 |
| RRIRYRPPRLPRPRPRPQIVPRP | -0.342 |
| RRIRGRPPRLPRPRPRPWFMPRP | -0.384 |
| RRIRARPPRLPRPRPRPELRPRP | 1.14 |
| RRIRMRPPRLPRPRPRPEKRPRP | 0.0458 |
| RRIRRRPPRLPRPRPRPCETPRP | 0.0583 |
| RRIRWRPPRLPRPRPRPHRKPRP | 0.113 |
| RRIRKRPPRLPRPRPRPCPNPRP | -0.0875 |
| RRIRERPPRLPRPRPRPSPHPRP | -0.229 |
| RRIRCRPPRLPRPRPRPTDIPRP | -0.623 |
| RRIRMRPPRLPRPRPRPFMVPRP | -0.161 |
| RRIRPRPPRLPRPRPRPGLAPRP | 0.841 |
| RRIRNRPPRLPRPRPRPIDNPRP | -0.0163 |
| RRIRERPPRLPRPRPRPTVHPRP | -0.42 |
| RRIRVRPPRLPRPRPRPPLYPRP | -0.00849 |
| RRIRTRPPRLPRPRPRPDNGPRP | -0.225 |
| RRIRERPPRLPRPRPRPWIIPRP | -0.269 |
| RRIRYRPPRLPRPRPRPKKSPRP | -0.298 |
| RRIRNRPPRLPRPRPRPECAPRP | 0.00267 |
| RRIRFRPPRLPRPRPRPNQVPRP | -1.05 |
| RRIRQRPPRLPRPRPRPECMPRP | -0.0252 |
| RRIRGRPPRLPRPRPRPYKEPRP | -0.375 |

| Sequence | shrunken log2 fold change |
| --- | --- |
| RRIRKRPPRLPRPRPRPEARPRP | 0.429 |
| RRIRTRPPRLPRPRPRPHGDPRP | -0.146 |
| RRIRFRPPRLPRPRPRPNQFPRP | -0.0599 |
| RRIRPRPPRLPRPRPRPQWRPRP | 0.308 |
| RRIRPRPPRLPRPRPRPWHVPRP | -0.0812 |
| RRIRDRPPRLPRPRPRPIFMPRP | -0.285 |
| RRIRPRPPRLPRPRPRPWTLPRP | 0.104 |
| RRIRGRPPRLPRPRPRPWACPRP | 0.216 |
| RRIRRRPPRLPRPRPRPRYAPRP | 0.284 |
| RRIRIRPPRLPRPRPRPEVKPRP | 0.135 |
| RRIRWRPPRLPRPRPRPLENPRP | 0.0135 |
| RRIRFRPPRLPRPRPRPLYQPRP | -0.374 |
| RRIRFRPPRLPRPRPRPQHNPRP | -0.781 |
| RRIRLRPPRLPRPRPRPRLFPRP | 0.17 |
| RRIRSRPPRLPRPRPRPGFFPRP | 0.176 |
| RRIRSRPPRLPRPRPRPHGGPRP | 0.103 |
| RRIRCRPPRLPRPRPRPVQCPRP | 0.207 |
| RRIRGRPPRLPRPRPRPSVQPRP | -0.0165 |
| RRIRVRPPRLPRPRPRPARVPRP | 0.263 |
| RRIRIRPPRLPRPRPRPQAFPRP | -0.0625 |
| RRIRYRPPRLPRPRPRPLQQPRP | -0.25 |
| RRIRDRPPRLPRPRPRPVKHPRP | -0.0698 |

| Sequence | shrunken log2 fold change |
| --- | --- |
| RRIRFRPPRLPRPRPRPPACPRP | 0.628 |
| RRIRRRPPRLPRPRPRPLAPPRP | 0.399 |
| RRIRSRPPRLPRPRPRPMGGPRP | 0.334 |
| RRIRMRPPRLPRPRPRPMQAPRP | 3.02 |
| RRIRERPPRLPRPRPRPVCEPRP | 0.162 |
| RRIRFRPPRLPRPRPRPVDNPRP | -0.0449 |
| RRIRRRPPRLPRPRPRPHRAPRP | 0.243 |
| RRIRGRPPRLPRPRPRPCVIPRP | 0.033 |
| RRIRSRPPRLPRPRPRPWMFPRP | -0.0604 |
| RRIRRRPPRLPRPRPRPWGTPRP | -0.0589 |
| RRIRLRPPRLPRPRPRPERKPRP | -0.0366 |
| RRIRQRPPRLPRPRPRPDPRPRP | -0.00604 |
| RRIRVRPPRLPRPRPRPQEIPRP | -0.0438 |
| RRIRFRPPRLPRPRPRPSAVPRP | -0.119 |
| RRIRERPPRLPRPRPRPINQPRP | -0.734 |
| RRIRSRPPRLPRPRPRPTPGPRP | 0.451 |
| RRIRFRPPRLPRPRPRPHPRPRP | 0.5 |
| RRIRKRPPRLPRPRPRPIFQPRP | 0.266 |
| RRIRCRPPRLPRPRPRPAFMPRP | 0.117 |
| RRIRERPPRLPRPRPRPIYRPRP | -0.565 |
| RRIRGRPPRLPRPRPRPDWHPRP | 0.238 |
